These are literature values, as cited in patent publication US20140179681A1, “METHODS AND COMPOSITIONS OF TARGETED DRUG DEVELOPMENT” (priority 2010, published 2014).

By Kd is commonly meant the constant that tells how readily two partners part at equilibrium.

The data set has as its target T1, EGF binding site (Rattus norvegicus, UniProt G3V6K6).
T1 construct: Receptor source was rat liver membranes; tissue NovaScreen BioSciences; host or cells: rat liver membranes
The settings on record: radioligand of the inhibitor assays; rat liver membranes; read-out: KD (binding affinity).

B1: [^125I]EGF: "The radioligand was [^125I]EGF ([…]) at a final ligand concentration of 0.36 nM" (protein, UniProt P01133 23-1207, looked up)
Pro-epidermal growth factor: PQHWSCPEGTLAGNGNSTCVGPAPFLIFSHGNSIFRIDTEGTNYEQLVVDAGVSVIMDFHYNEKRIYWVDLERQLLQRVFLNGSRQERVCNIEKNVSGMAINWINEEVIWSNQQEGIITVTDMKGNNSHILLSALKYPANVAVDPVERFIFWSSEVAGSLYRADLDGVGVKALLETSEKITAVSLDVLDKRLFWIQYNREGSNSLICSCDYDGGSVHISKHPTQHNLFAMSLFGDRIFYSTWKMKTIWIANKHTGKDMVRINLHSSFVPLGELKVVHPLAQPKAEDDTWEPEQKLCKLRKGNCSSTVCGQDLQSHLCMCAEGYALSRDRKYCEDVNECAFWNHGCTLGCKNTPGSYYCTCPVGFVLLPDGKRCHQLVSCPRNVSECSHDCVLTSEGPLCFCPEGSVLERDGKTCSGCSSPDNGGCSQLCVPLSPVSWECDCFPGYDLQLDEKSCAASGPQPFLLFANSQDIRHMHFDGTDYGTLLSQQMGMVYALDHDPVENKIYFAHTALKWIERANMDGSQRERLIEEGVDVPEGLAVDWIGRRFYWTDRGKSLIGRSDLNGKRSKIITKENISQPRGIAVHPMAKRLFWTDTGINPRIESSSLQGLGRLVIASSDLIWPSGITIDFLTDKLYWCDAKQSVIEMANLDGSKRRRLTQNDVGHPFAVAVFEDYVWFSDWAMPSVMRVNKRTGKDRVRLQGSMLKPSSLVVVHPLAKPGADPCLYQNGGCEHICKKRLGTAWCSCREGFMKASDGKTCLALDGHQLLAGGEVDLKNQVTPLDILSKTRVSEDNITESQHMLVAEIMVSDQDDCAPVGCSMYARCISEGEDATCQCLKGFAGDGKLCSDIDECEMGVPVCPPASSKCINTEGGYVCRCSEGYQGDGIHCLDIDECQLGEHSCGENASCTNTEGGYTCMCAGRLSEPGLICPDSTPPPHLREDDHHYSVRNSDSECPLSHDGYCLHDGVCMYIEALDKYACNCVVGYIGERCQYRDLKWWELRHAGHGQQQKVIVVAVCVVVLVMLLLLSLWGAHYYRTQKLLSKNPKNPYEESSRDVRSRRPADTEDGMSSCPQPWFVVIKEHQDLKNGGQPVAGEDGQAADGSMQPTSWRQEPQLCGMGTEQGCWIPVSSDKGSCPQVMERSFHMPSYGTQTLEGGVEKPHSLLSANPLWQQRALDPPHQMELTQ
modifications: Pro-epidermal growth factor 125I label
For the molecule B1, the Kd was 1.04 nM.
